Measurements from article PMC9918544.

How the values were obtained:
FSFG_(52×12) Mutant 2 = assay: partitioning into the condensed FG phase (confocal laser scanning microscopy); FG particles of unlabelled FG domain in assay buffer (50 mM Tris/HCl, 5 mM DTT, 150 mM NaCl) mixed with fluorescent probe: 6 μM mCherry, 3 μM EGFP, 1 μM NTR or 1.5 μM NTR pre-incubated with 1 μM cargo; partition coefficient = signal in the centre of the particle / buffer; 21 °C
FSFG_(52×12) Mutant 1 = assay: as above

partition coefficient (FSFG_(52×12) Mutant 2): 2000 | partition coefficient (FSFG_(52×12) Mutant 1): 2000
Substance: NTF2 (Nuclear transport factor 2), coupled with Alexa488 (from UniProt P61970 1-127) (natural protein)
